# Source: patent US5457092A, “Methods of promoting bone growth in mammals comprising administration of modified parathyroid hormone” (Gesellschaft fur Biotechnologische Forschung mbH (GBF), priority 1987, dated 1995)
# B1: bPTH(1-84): full-length (complete) parathyroid hormone, bovine source; comparative example (protein, UniProt P01268 32-115, looked up)
# Parathyroid hormone: AVSEIQFMHNLGKHLSSMERVEWLRKKLQDVHNFVALGASIAYRDGSSQRPRKKEDNVLVESHQKSLGEADKADVDVLIKAKPQ
# modifications: Parathyroid hormone
# Legend:
# [1] = system: osteoblast enriched rat embryo calvaria cell cultures; assay: Cyclic AMP production in rat embryo calvaria cell cultures; type: cell-based
# Protocol: (§1) FIG. 10 is a graphical representation showing the dose dependent stimulation by bPTH (1-84) of osteoblast enriched rat embryo calvaria cell cultures. Experimental details for the determination of cyclic AMP (.quadrature.) (15 min after stimulation) and incorporation of [^3 H]thymidine into DNA ( ) and CK ( ) specific activity (24 h after stimulation) are given below. The results are means ±S.E.M., N≥5. In several cases the S.E.M. was less than the size of the symbol. Control values were: cyclic AMP, 25±5 pmol/mg of protein; DNA, 240±30 c.p.m./μg of DNA; CK, 200±20 nmol/min per mg of protein. Statistical significance of differences between treated and corresponding control groups by Student's T test: *P<0.05; **P<0.01.
# (§2) Rat calvaria cultures were treated with fragments of PTH derived from the central portion of the molecule.
# [2] = system: rat organs (epiphysis, diaphysis, kidney); assay: [3H]thymidine incorporation into DNA in rat organs after i.p. injection; type: in vivo
# [3] = system: ROS 17/2.8 osteoblast-like cells; assay: Cyclic AMP production in ROS 17/2.8 osteoblast-like cells; type: cell-based, rat; settings: for Cyclic AMP, effect of fragment (experimental value/control value): control 29 ± 5.2 pmol/mg of protein
# Protocol: When cultures of the widely used model for osteoblasts, the osteoblast-likeclone of rat osteosarcoma, ROS 17/2.8 (Endocrinology (Baltimore), 107 (1980) 1494-1503=12; Majeska et al.), were incubated with full-length PTH and PTH fragments (Table 4), cyclic AMP production was stimulated only by bPTH(1-84) and hPTH(1-34), whereas hPTH(25-39), hPTH(27-48), hPTH(28-48) and hPTH(34-47) were ineffective.
# [4] = system: rat organs (epiphysis, diaphysis, kidney); assay: [3H]thymidine incorporation into DNA in rat organs after i.p. injection; type: in vivo; remark: listed apart in the source
# Protocol: FIG. 12 is a graph showing the time course of stimulation by hPTH (1-34) of DNA synthesis in rat organs. Female rats (20-25 days old) were injected i.p. with hPTH-(1-34) (2 μg/rat). At 2 h before the times indicated, the rats were killed and organs were removed and incubated in 2 ml of Dulbecco's modified Eagle's medium containing 5 μl of [^3 H]thymidine. (Amersham: 5 Ci/mmol) for 2 h, then washed with medium and homogenized in deionized distilled water. The total uptake of [^3 H]thymidine and acid-insoluble radioactivity was measured, as well as DNA content, as described below. , Diaphysis; O, epiphysis; Δ; kidney. P<0.01 versus controls.
# The pieces were then incubated for 2 h more (the time indicated in FIG. 12) with [^3 H]thymidine (5 μci/ml; 5 Ci/mmol) at 37° C. in Dulbecco's modified Eagle's medium under an atmosphere Of […] /95% air. Total [^3 H]thymidine uptake and incorporation into trichloroacetic acid-insoluble material was measured as described in Biochem. J., 214 (1983) 293-298 (16; Somjen et al.). At no time including the 22 24 h pulse, was there any significant change in the total uptake of [^3 H]thymidine which reflects changes in the thymidine pool which, in turn, could account for changes in incorporation. DNA was determined by the Burton method; cf. Biochem. J., 62 (1956) 315-323 (17; Burton).
# To corroborate that under the circumstances of these experiments the increase in CK specific activity in bone is indeed a valid marker of cell proliferation, changes in DNA synthesis were measured by [^3 H]thymidine incorporation; cf. Biochem. J., 272 (1990) 781-785 (18; Somjen et al.). The earliest time at which PTH increased [^3 H]thymidine incorporation was determined by in-jecting rats with an optimal dose of 2 μp of PTH(1-34)/rat, equivalent to 13 nM (FIG. 14) and measuring 2 h pulses of [^3 H)thymidine incorporation into DNA (FIG. 12).
# [5] = system: ROS 17/2.8 osteoblast-like cells; assay: CK specific activity in ROS 17/2.8 osteoblast-like cells; type: cell-based, rat; settings: control 698 ± 70 nmol/min per mg of protein
# [6] = system: rat organs (epiphysis, diaphysis, kidney); assay: CK specific activity in rat organs after i.p. injection; type: in vivo; settings: i.p., 4 h later
# Protocol: FIG. 13 is a graph showing the time-dependent stimulation by hPTH (28-48) of CK specific activity in rat organs. Female rats (20-25 days old) were injected i.p. with hPTH-(28-48) (1.25 μg/rat). Experimental details are as described for FIG. 10. (a) Diaphysis, (b) epiphysis, (c) kidney. *P<0.05, **P<0.01 versus controls.
# FIG. 14 is a graph showing the dose-dependent stimulation of CK specific activity by hPTH (1-34) in rat organs. Female rats (20-25 days old) were injected i.p. with hPTH-(1-34). At 4 h later, rats were killed and extracts were prepared and assayed as described below. Experimental details are as described for FIG. 10 (a) Diaphysis, (b) epiphysis, (c) kidney. *P<0.05, ** P<0.01 versus controls.
# FIG. 15 is a graph showing the dose-dependent stimulation of CK specific activity by hPTH (28-48) in rat organs. Female rats (20-25 days old) were injected i.p. with hPTH-(28-48). Experimental details are as described for FIG. 13 (a) Diaphysis, (b) epiphysis, (c) kidney. *P<0.05, **P<0.01 versus controls.
# FIG. 16 is a graph showing the […] stimulation by bPTH (1-84) of CK specific activity in rat organs. Female rats (20-25 days old) were injected i.p. with bPTH-(1-84) (3.5 μg/rat). At the times indicated, the rats were killed and the diaphyses (a) and epiphyses (b) of long bones as well as the kidneys (c) were collected and homogenized. Extracts were prepared and assayed as described below. Results are means ±S.E.M for π=5. Statistical significance of differences between treated and control groups by Student's T test: *P<0.05; **P<0.01. Note that the activity scales differ for different organs.
# Kidneys, tibia and femur were excised; the epiphyses or diaphyses of the long bones were collected and washed thoroughly with cold 0.9% NaCl. The bones were split open lengthwise and the marrow was scraped out. Organs were homogenized in ice-cold buffer containing 50 mM-Tris/HCl (pH 6.8), 5 mH-magnesium acetate. 2.5 mM-dithiothreitol, 0.4 mM-EDTA and 250 mM-sucrose using a Polytron homogenizer in 10 s bursts with intervening cooling periods. Supernatant extracts were obtained by centrifugation at 12000 g for 5 min at 4° C. CK activity was measured at 30° C. in a Gilford 250 automatic recording spectrophotometer at 340 nm using a coupled assay for ATP, in 0.5 ml of incubation mixture containing 50 mM-imidazole acetate buffer (pH 6.7), 25 mM-phosphocreatine, 20 mM-N-acetylcysteine, 20 mM-D-glucose, 10 mM-magnesium acetate, 5 mM-EDTA, 2 mM-ADP, 2 mM-NAD+, 2 mM-dithiothreitol, 50 μM-diadenosine pentaphosphate (adenylate kinase inhibitor), 5 μg of bovine serum albumin. 1.2 units of glucose-6-phosphate dehydrogenase and 0.8 units of hexokinase. Protein was determined by the Coomassie Brilliant Blue dye-binding method, with bovine serum albumin as the standard.
# [7] = system: osteoblast enriched rat embryo calvaria cell cultures; assay: DNA synthesis ([3H]thymidine incorporation) in rat embryo calvaria cell cultures; type: cell-based
# Protocol: as §1
# [8] = system: ROS 17/2.8 osteoblast-like cells; assay: DNA synthesis in ROS 17/2.8 osteoblast-like cells; type: cell-based, rat; settings: control 392 ± 58 c.p.m./μg of DNA
# [9] = system: osteoblast enriched rat embryo calvaria cell cultures; assay: CK specific activity in rat embryo calvaria cell cultures; type: cell-based; settings: for increase of CK activity (in words): treated for 24 h
# Protocol: as §1, §2
# [10] = system: rat epiphysial cartilage cell cultures; assay: DNA synthesis in rat epiphysial cartilage cell cultures; type: cell-based; settings: 10 nM; control 350 ± 25
# [11] = system: rat epiphysial cartilage cell cultures; assay: CK specific activity in rat epiphysial cartilage cell cultures; type: cell-based
# Protocol: To compare the stimulations seen in osteoblast-like cells (FIGS. 10 and 11) with PTH effects in a cartilage system, cultures of rat epiphysial cartilage cells were incubated with full-length PTH and selected PTH fragments (Table 3). CK activity was stimulated by bPTH(1-84) and hPTH(28-48) but not by hPTH(25-39) or hPTH(34-47). […] The comparison between the complete molecule and the mid-regional fragment hPTH (28-48) is similar to but not identical with the results obtained for calvaria cell cultures (FIGS. 10 and 11) and in the chick sternum chondrocyte system; cf. Biochem. J., 252 (1988) 263-268 (11; Farndale et al.),
molecule,measurement,setting,value
CC[C@H](C)[C@H](NC(=O)[C@H](CCC(=O)O)NC(=O)[C@H](CO)NC(=O)[C@@H](NC(=O)[C@@H](N)CO)C(C)C)C(=O)N[C@@H](CCC(N)=O)C(=O)N[C@@H](CC(C)C)C(=O)N[C@@H](CCSC)C(=O)N[C@@H](Cc1c[nH]cn1)C(=O)N[C@@H](CC(N)=O)C(=O)N[C@@H](CC(C)C)C(=O)NCC(=O)N[C@@H](CCCCN)C(=O)N[C@@H](Cc1c[nH]cn1)C(=O)N[C@@H](CC(C)C)C(=O)N[C@@H](CC(N)=O)C(=O)N[C@@H](CO)C(=O)N[C@@H](CCSC)C(=O)N[C@@H](CCC(=O)O)C(=O)N[C@@H](CCCNC(=N)N)C(=O)N[C@H](C(=O)N[C@@H](CCC(=O)O)C(=O)N[C@@H](Cc1c[nH]c2ccccc12)C(=O)N[C@@H](CC(C)C)C(=O)N[C@@H](CCCNC(=N)N)C(=O)N[C@@H](CCCCN)C(=O)N[C@@H](CCCCN)C(=O)N[C@@H](CC(C)C)C(=O)N[C@@H](CCC(N)=O)C(=O)N[C@@H](CC(=O)O)C(=O)N[C@H](C(=O)N[C@@H](Cc1c[nH]cn1)C(=O)N[C@@H](CC(N)=O)C(=O)N[C@@H](Cc1ccccc1)C(=O)O)C(C)C)C(C)C [hPTH(1-34)],stimulation of cyclic AMP production (in words),[1]; treated for 15 min,able to stimulate cyclic AMP formation
same,DNA synthesis in the diaphysis and the epiphysis at 24 h (in words),"[2]; 2 μg/rat, 24 h",significant increase
same,stimulation of cyclic AMP production (in words),[3],stimulated
same,"Cyclic AMP, effect of fragment (experimental value/control value)",[3]; 40 nM,4.67 ± 0.09
same,DNA synthesis in the kidney over time (in words),"[4]; 2 μg/rat, equivalent to 13 nM, 2 h pulses",no increase in DNA synthesis at any time
same,DNA synthesis in the diaphysis and the epiphysis at 4 or 16 h (in words),"[4]; 2 μg/rat, 4 or 16 h",no change
same,"CK specific activity, effect of fragment (experimental value/control value)",[5]; 40 nM,1.83 ± 0.09
same,dose of maximal effect on CK specific activity,[6],2 μg/rat
same,dose giving a significant increase in CK specific activity in all organs,"[6]; diaphysis, epiphysis, kidney",0.4 μg/rat
same,stimulation of DNA synthesis (in words),[7],maximal
same,"[^3 H]Thymidine incorporation, effect of fragment (experimental value/control value)",[8]; 40 nM,2.06 ± 0.09
same,increase of CK activity (in words),[9],maximally active
B1,"Cyclic AMP concentration, effect of fragment (experimental value/control value)","[1]; 100 nM, 15 min, control 29 ± 2.9 pmol/mg of protein",3.74 ± 0.30
same,"[^3 H]thymidine incorporation into DNA, Kidney","[2]; rat, 22-24 h after injection of 3.5 μg, control 9.0 ± 2.1",11.8 ± 2.4 c.p.m./pg of DNA
same,"[^3 H]thymidine incorporation into DNA, Diaphysis","[2]; rat, 22-24 h after injection of 3.5 μg, control 24.1 ± 3.8",43.4 ± 4.7 c.p.m./pg of DNA
same,"[^3 H]thymidine incorporation into DNA, Epiphysis","[2]; rat, 22-24 h after injection of 3.5 μg, control 25.8 ± 5.2",40.7 ± 3.3 c.p.m./pg of DNA
same,[^3 H]Thymidine incorporation into DNA,[10],556 ± 50 c.p.m./plate
same,stimulation of cyclic AMP production (in words),[3],stimulated
same,"Cyclic AMP, effect of fragment (experimental value/control value)",[3]; 10 nM,4.60 ± 0.10
same,stimulation of DNA synthesis in the kidney (in words),[4]; 22-24 h after injection,no significant stimulation
same,"CK specific activity, effect of fragment (experimental value/control value)",[5]; 10 nM,1.92 ± 0.11
same,stimulation of DNA synthesis (in words),[7],maximal
same,"[3H)Thymidine incorporation, effect of fragment (experimental value/control value)","[7]; 100 nM, 24 h, control 624 ± 73 c.p.m./μg of DNA",2.61 ± 0.11
same,"[^3 H]Thymidine incorporation, effect of fragment (experimental value/control value)",[8]; 10 nM,1.71 ± 0.18
same,"CK specific activity, effect of fragment (experimental value/control value)","[9]; 100 nM, 24 h, control 457 ± 46 nmol/min per mg of protein",2.27 ± 0.09
same,increase of CK activity (in words),[9],maximally active
same,stimulation of CK activity (in words),[11],stimulated
same,CK specific activity,"[11]; 10 nM, control 225 ± 32",389 ± 39 nmol/min per mg of protein
